Source: the DeepSol protein solubility set

assay: soluble on expression in E. coli; label from the status in PepcDB or PDB records

Q: Which “soluble on expression in E. coli” value does the source give for “MSHTILLLQPTDNIESRSWSDYENTTECLEGICRVYEEYLKKKVPAQNEITYDISHLFEFIDDLKDLSMLVLDNTTYTYVPHNKQYVKESIYKLMNNRLNNQH” here?
A: not soluble

Q: Which “soluble on expression in E. coli” value does the source give for “MGSDKIHHHHHHMKKTIYKVLVSFYQYVGLGKKFHPSHDTVLIIGGSSNELGIELCETFIEDYHTKVINIDTIDSINGKNARRSEKLYTFISCKDFSDIKCLEESMLYLQNLEIIPTVLINNMQEGIESTLLKEDKFLRLDEESLNEFEKIVRYNLQSVILITKFCLSNIFPKVQAEAQEKAKGFYIVNISSVLTLKPCKSGTHFITSKCGINSFHDGITSELKLKDSNLNVKTLIAYLPSFESEAHWKRLSPSISKHLVHCLLEGRYGDTILESKRSIGDILLITGFKSSFT” here?
A: not soluble

Q: For “MAMNLRKNQAPLYIKVHEIDNTAIIVNDGGLPKGTVFSCGLVLEEDVPQGHKVALTDLNQGDEIVRYGEVIGFADETIKRGSWIREALVRMPAP”, which “soluble on expression in E. coli” value is on record?
A: not soluble

Q: Which “soluble on expression in E. coli” value does the source give for “MAMDNQGWFSNETATFGDRLAGAREAAGLTQEEMARRLGVRLKTLQSWEDDLAEPRANRLQMMAGMLNVSLRWLLTGEGEGAEGPSEPAILTSEGREALAELARMRTQMLALAQEMGQLEKRMRALLRKEAE” here?
A: not soluble

Q: With “MASYDKISDGWYRVCPKRSSNRALITVKLPFSTLFRLKPMTDITPFANRLGKNIKHLMKWAKRNGIEAWRIYDRDIPQFPFAADVYGDRIHLQEYDTGWLMRPEEYEAWLAEVLEAVAFVTGFAPEQIRLKRRERQKGLQQYEKTGKAGDDFVITENGRKFWVNLDKYLDTGLFLDHRNTRKKVGETAAGKRFLNLFSYTGSFTVYAATGGAASSETVDLSNTYLDWAKRNFELNGIDTERHKIVRADVFQYLQTAYGEGRRFDLIVMDPPSFSNSKKMSDILDIQRDHKKLIDGAVKLLASDGILYFSNNLRSFVLDDLVSEQYAVKDISKQSVPEDFRNKKIHRCWEIRHKS” as the sequence, how does the “soluble on expression in E. coli” value read?
A: not soluble

Q: For “MGSDKIHHHHHHMSMILTSKFVDRERELNFLREHYHSGKAELIVIYGRRRIGKTYLLRKFLEETNGIYLLAEENETNLEDFSLRLADYFKDPFLKENPIRTWGAFFTYLAGKSTKRLVVVIDGVQYLVRAEKGFLSTLQKYWDLYLSSTKIMLILCGSLVSFMEGILSGKSPIYGRRTGTWKVEEMSFFDVLKFHPIDIETAIKIYGVFGGVPQYWVDYDPGKDFWENIKDLVLSKGAKYYDEPKYLLKEELRDVSRYFSILRAISLGYSRFGQIADAARIETKSLGKYLNVLEEMGYIREEKPIVGRGKTVYKINEHFFNFWFRFVFPRRSEIEMGFDVVEEIKKEFNNYLGPVFEEISRQFLIEMNKRKKLPFRFTKIGRWWYKGEEIDLVALNEDEKKALFIEVKWKNLERKEAYKILKDLKRKAELTGLHDWNKAYGIIAKSIMEKEELREEGFLAWDLRDFELIN”, which “soluble on expression in E. coli” value is on record?
A: not soluble

Q: With “MERKISRIHLVSEPSITHFLQVSWEKTLESGFVITLTDGHSAWTGTVSESEISQEADDMEMEKGKYVGELRKALLSGAGPADVYTFNFSKESCYFFFEKNLKDVSFRLGSFNLEKVENPAEVIRELICYCLDTTAENQAKNEHLQKENERLLRDWNDVQGRFEKCVSAKEALETDLYKRFILVLNEKKTKIRSLHNKLLNAAQ” as the sequence, how does the “soluble on expression in E. coli” value read?
A: soluble

Q: Which “soluble on expression in E. coli” value does the source give for “MSLNLSFAAIDFETATGYMESACAVGIVTVTDGEITDEYYSLIQPPENEYWRANMLVHGITPGMTESLPGFHAIYPEVKKRLQGNVVVAHNEQFDRNVLKNTMRMYGLDYDELSLPERWECTCRIYRSLGYKPVNLSACCEREGIELKHHEALSDARGCAKLYLNFLEKYRPLSTEGHHHHHH” here?
A: soluble

Q: For “MGSDKIHHHHHHMGKVTIEPLSRLEGHGKVSITLDDAGKPTDVKLHITALRGFEQFVVGRPAEEVPRIVPRICGICQTPHHLASVKAVDAAWGAEVPSAAEKLRELMHLGNMMHSHALHFYYLAAPDFVLGPDSDPAARNIIGVIGAAPEVAKKAIAMRRVGQSIVETIGGRAIHPVTGVPGGVSKALSEEKRDELLNEIDEMIAYGQDGIALIKSLNEKYMDLAKTLGVIDTWYLGMVKDGKHNFYGDTLRFMSPDGKQTTDFKPSEYLDNIGEHVVGHNYVKYPYNKKVGYPDGLYRVGPLAMLNVCDSMPTPLAEEARKDFADTFGKPANQSLAYNHARLIELLASCERVKELLEDSEITSTDIKAEVEPKAGNGVGAIYAPRGTLFHNYETDDKGIVVKANMIVASTHNVPTMEKAIQQAAEVVFK”, which “soluble on expression in E. coli” value is on record?
A: not soluble

Q: For “WVPHELTENQKNRRFEVSSSLILRNHNEPFLDRIVTCDEKWILYDNRRRSAQWLDQEEAPKHFPKPILHPKKVMVTIWWSAAGLIHYSFLNPGETITSEKYAQEIDEMNQKLQRLQLALVNRKGPILLHDNARPHVAQPTLQKLNELGYEVLPHPPYSPDLLPTNYHVFKHLNNFLQGKRFHNQQDAENAFQEFVESQSTDFYATGINQLISRWQKCVDCNGSYFD”, which “soluble on expression in E. coli” value is on record?
A: soluble

Q: With “MLEQVCQLARNAGDAIMQVYDGAKPMEYARKQDDSPVTAADIAAHTVILEGLRTLTPDIPVLSEEDPPAWEVRQHWQRYWLVDPLDGTKEFIKRNGEFTVNIALIEQGKPVLGVVYAPVLKVMYYAAEGKAWKEECGVRKQIQVRDARPPLVVISRSHTDDELTEYLQQLGEHQTTSIGSSLKFCLVAEGQAQLYPRFGPTSVWDTAAGHAIAVAAGAHVHDWQGKTLDYTPRESFLNPGFRVTIY” as the sequence, how does the “soluble on expression in E. coli” value read?
A: not soluble

Q: For “MKYIDCAVIGAGPAGLNASLVLGRARKQIALFDNNTNRNRVTQNSHGFITRDGIKPEEFKEIGLNEVMKYPSVHYYEKTVVMITKQSTGLFEIVTKDHTKYLAERVLLATGMQEEFPSIPNVREYYGKSLFSCPYCDGWELKDQPLIIISENEDHTLHMTKLVYNWSTDLVIATNGNELSQTIMDELSNKNIPVITESIRTLQGEGGYLKKVEFHSGLRIERAGGFIVPTFFRPNQFIEQLGCELQSNGTFVIDDFGRTSEKNIYLAGETTTQGPSSLIIAASQGNKAAIAINSDITDERF”, which “soluble on expression in E. coli” value is on record?
A: soluble

Q: For “MGLCISKHSGSSYSYSDRDHWEVPVNPSNVRAVSSHQTASASDRASDKVDERPATFSHFQLARCGEDYTLSMVSLAAYQAERRHRGNLIKDRSQSALPWVQVYHSETGLNYSFQIDRTTTVKVAGFNYNVPNDGKTRHLYSAGTSQVNMPVIADNMSACIAVACAAENVDAGTG”, which “soluble on expression in E. coli” value is on record?
A: not soluble

Q: With “MADLFDGMKRRMDALIAERFGMKVNINGTDCIVVESDFLAELGPVEGNGKNVVVFSGNVIPRRGDRVVLRGSEFTVTRIRRFNGKPQLTLEENNGGKGA” as the sequence, how does the “soluble on expression in E. coli” value read?
A: soluble

Q: For “MGSDKIHHHHHHMTQLFLHSDTPNEKELISIYEKAVSEAVELYIFSAYLTHWDVKNKLNSKLQEFKFIFGQDFGLSKKEAIRKVLKWLPSHLKFTLMVAQGIQGFHPKAVFWKNDKNEYYALIGSSNLTHAAFNSNYEANILTKISEQDFIKVKSWADEIAMKSIPVSEDWLEEYQEAEINYKKSTVRQSVMDKLFMEMPNYNQELIAARRKQMRNHQTVCNQLKNLIKQCAAGKIDNNDFYGEFNKLWSWKSENKGEGVGNRFQDKTWKRTGKSSDFRKLCIAIQSVFDAPLTERDNVVAKQIDWLKECGVSTRGSVFSEMLCQEYPDRYPVLNAPIKKFLEENKFKSAKGASEGSKYIDLSMKLRALLAMQSEIKDLAELDVLVQAEYRNRTDIDWE”, which “soluble on expression in E. coli” value is on record?
A: not soluble

Q: For “MINIIGLGPGNLDYITKKGENLISTSDVLIGGKRNLESIKNFEGEKIVLDSNLREIIEYINNNKEKQISIIASGDPLIYGIGRYLSKNIDNKMLNMVSGISSLQYIFSKIYVDMNDVYITSSHGKVPDFDYILSHKKVCMVTDSKIGPKQISREIIDRNLNKIIVVGENLSYDNEKITIAKPEEIIRIDNFDMNVVVILDEE”, which “soluble on expression in E. coli” value is on record?
A: not soluble

Q: Which “soluble on expression in E. coli” value does the source give for “NFDTNMFKLENYVKEKYSLESLEIIPNEFDDTPTILSERISQVAAGVLRNLIDDNMKIGFSWGKSLSNLVDLIHSKSVRNVHFYPLAGGPSHIHAKYHVNTLIYEMSRKFHGECTFMNATIVQENKLLADGILQSRYFENLKNSWKDLDIAVVGIGDFSNKGKHQWLDMLTEDDFKELTKVKTVGEICCRFFDSKGKEVYENLQERTIAISLEDLKNIPQSLAVAYGDTKVSSILSVLRANLVNHLITDKNTILKVLEEDGDL” here?
A: soluble

Q: For “MGSDKIHHHHHHMSKPAYLVEADGVNITKQIADRLLSLTVVDEAEQLSDRVEIVLDDRDKLLEIPKSGTWLKVYLGYAEGGKLPVYMGTYAVDDLTLSNGPRSMVVRATALETAPAMKDSRTQSWHDTTLGEIARTIASRSGLELRIVGDVGSIPIKHEDQTAESDIAFLTRLARRLKITAKPIDKALWITRRASDIPATPGVELAQRIVKGDEVSDWRATIKNRGAYSRVKARYFDQDEKKEKLLTVGPEDGNLQTFEEKQLYKTRDEAQRAADSRLQSLQSGEVTIDFSMEGDPEFTAEGQVTLQDFRALVDGTWYIRNVTHKFDGNGYRTTVTCGTKGEANNDWSAGRGENDKRSASEKGSLLCKTAQQLRGFSTQGGPDGGRNACVWAVNRVFQKAGLTTPWGGSNYVPDAEAALRRSGAQQVSGPEPGAIAIFTDGGNPPQAHIGIVTCDGGRVISNSSSRPTRTRLASPSEYQGFYSGPIRYYRLK”, which “soluble on expression in E. coli” value is on record?
A: not soluble

Q: With “SAAEGDFLMRYRAVSNKLKKRFLRKPNVAEASEQFGQLAKELKQQDCPQYAAFCNLAMARCEQTLFNAPGEALALTDAARLFLASEQETRALRAPGFDENMQAAMNCYSFAIKVYIEMNQPVMAARLSLELGNALKEMNRPGEAIIHFQRAAELQIQMPIEALLSLWEMASCKILTRDYDGALAVLSEMQHMCQERGLQLPGTNTPVGAFMDIIAKCEISRVLLLMLLEPPPQKLLPEHAQTLERYAWESFDSHSQMACQEKDTESLKALQTELW” as the sequence, how does the “soluble on expression in E. coli” value read?
A: soluble

Q: For “MGHHHHHHSHMNKILIAAASSGTGKTTVTLGIMHALKKRGLRVQPFKVGPDYIDTNYHQAITGVASINLDSFLIDDDAMLAALFEKHGQSADISVIEGVMGLFDGLGIDRDNSSTSFIAKCTKTPVILVVDGKAISTSAAAIVDGFNRFDPELTIAGVIINRVASENHFSLIKGAIERYTDVPVLGYLPKNAAVALPERHLGLVPKEEMTELETKWEVLGDLIAEHVDLDRLLAISKTG”, which “soluble on expression in E. coli” value is on record?
A: not soluble

Q: For “MGSLLSTPEGSNPIGKAIGFLSQRKRPAVELQDDFEPEVKVQRTCEVQDEEAEEENIEFEHEIDEEEIEEQDEIVHEQSENDQNLKDSDEKKNEIVALEKSTEKDEELPIPEKEAQVDQEDTLENLFEKETESNNTNEQQENVETNDTTSNFDLNEAEERVDVFSNGLLTSIQSTQPEIIA”, which “soluble on expression in E. coli” value is on record?
A: soluble

Q: For “QSVLTQPPSVSAAPGQKVTISCSGSTSNIGNNYVSWYQQHPGKAPKLMIYDVSKRPSGVPDRFSGSKSGNSASLDISGLQSEDEADYYCAAWDDSLSEFLFGTGTKLTVLGQPKAAPSVTLFPPSSEELQANKATLVCLISDFYPGAVTVAWKADSSPVKAGVETTTPSKQSNNKYAASSYLSLTPEQWKSHKSYSCQVTHEGSTVEKTVAPTECS”, which “soluble on expression in E. coli” value is on record?
A: soluble

Q: Which “soluble on expression in E. coli” value does the source give for “MSLTNNNHRLISNSFSTYSIDTSRAYENYLTHWTEWKNNRIQEEQRDIAFQRLVSCLQNQETNLDLSELGLTTLPEIPPGIKSINISKNNLSLIPPLPASLTQLNVSYNRLIELPALPQGLKLLNASHNQLITLPTLPISLKELHVSNNQLCSLPVLPELLETLDVSCNGLAVLPPLPFSLQEISAIGNLLSELPPLPHNIHSIWAIDNMLTDIPYLPENLRNGYFDINQISHIPESILNLRNECSIDISDNPLSSHALQSLQRLTSSPDYHGPQIYFSMSDGQQNTLHRPLADAVTAWFPENKQSDVSQIWHAFEHEEHANTFSAFLDRLSDTVSARNTSGFREQVAAWLEKLSASAELRQQSFAVAADATESCEDRVALTWNNLRKTLLVHQASEGLFDNDTGALLSLGREMFRLEILEDIARDKVRTLHFVDEIEVYLAFQTMLAEKLQLSTAVKEMRFYGVSGVTANDLRTAEAMVRSREENEFTDWFSLWGPWHAVLKRTEADRWALAEEQKYEMLENEYPQRVADRLKASGLSGDADAEREAGAQVMRETEQQIYRQLTDEVLALRLPENGSQLHHSEGHHHHHH” here?
A: soluble
